Results from the Human Domainome abundance scans (Beltran et al. 2025).
± gives the uncertainty stated by the source.

Test: abundance fitness (aPCA) (normalised: wild type 0, dead -1); higher = more abundant; growth selection in yeast, the domain comes from the species named
Details: Homo sapiens

Substance | abundance fitness
Scaffold attachment factor B2 A40D, Q14151 | -0.409 ± 0.25
Scaffold attachment factor B2 A40E, Q14151 | 0.022 ± 0.097
Scaffold attachment factor B2 A40G, Q14151 | -0.233 ± 0.1
Scaffold attachment factor B2 A40L, Q14151 | -0.292 ± 0.12
Scaffold attachment factor B2 A40M, Q14151 | 0.613 ± 0.36
Scaffold attachment factor B2 A40P, Q14151 | -0.433 ± 0.22
Scaffold attachment factor B2 A40R, Q14151 | -0.368 ± 0.13
Scaffold attachment factor B2 A40S, Q14151 | -0.168 ± 0.12
Scaffold attachment factor B2 A40T, Q14151 | -0.561 ± 0.17
Scaffold attachment factor B2 A40W, Q14151 | -0.135 ± 0.31
Scaffold attachment factor B2 A40Y, Q14151 | -0.387 ± 0.11
Scaffold attachment factor B2 A63C, Q14151 | -0.235 ± 0.19
Scaffold attachment factor B2 A63E, Q14151 | -0.325 ± 0.12
Scaffold attachment factor B2 A63F, Q14151 | -0.628 ± 0.18
Scaffold attachment factor B2 A63G, Q14151 | -0.324 ± 0.083
Scaffold attachment factor B2 A63I, Q14151 | -0.546 ± 0.16
Scaffold attachment factor B2 A63K, Q14151 | -0.695 ± 0.15
Scaffold attachment factor B2 A63L, Q14151 | -0.984 ± 0.16
Scaffold attachment factor B2 A63M, Q14151 | -0.649 ± 0.13
Scaffold attachment factor B2 A63P, Q14151 | -0.608 ± 0.13
Scaffold attachment factor B2 A63Q, Q14151 | -0.292 ± 0.11
Scaffold attachment factor B2 A63R, Q14151 | -0.433 ± 0.089

Substance | abundance fitness
Scaffold attachment factor B2 A63S, Q14151 | -0.367 ± 0.13
Scaffold attachment factor B2 A63T, Q14151 | -0.44 ± 0.13
Scaffold attachment factor B2 A63V, Q14151 | -0.175 ± 0.11
Scaffold attachment factor B2 A63W, Q14151 | -0.63 ± 0.11
Scaffold attachment factor B2 D37A, Q14151 | -0.513 ± 0.091
Scaffold attachment factor B2 D37C, Q14151 | -0.548 ± 0.12
Scaffold attachment factor B2 D37E, Q14151 | -0.012 ± 0.095
Scaffold attachment factor B2 D37F, Q14151 | -0.737 ± 0.12
Scaffold attachment factor B2 D37G, Q14151 | -0.602 ± 0.076
Scaffold attachment factor B2 D37H, Q14151 | -0.865 ± 0.16
Scaffold attachment factor B2 D37K, Q14151 | -1.19 ± 0.18
Scaffold attachment factor B2 D37L, Q14151 | -0.9 ± 0.14
Scaffold attachment factor B2 D37M, Q14151 | -1 ± 0.21
Scaffold attachment factor B2 D37N, Q14151 | -0.883 ± 0.23
Scaffold attachment factor B2 D37P, Q14151 | -0.463 ± 0.14
Scaffold attachment factor B2 D37Q, Q14151 | -0.514 ± 0.11
Scaffold attachment factor B2 D37R, Q14151 | -1.05 ± 0.083
Scaffold attachment factor B2 D37S, Q14151 | -0.556 ± 0.1
Scaffold attachment factor B2 D37T, Q14151 | -0.597 ± 0.089
Scaffold attachment factor B2 D37V, Q14151 | -0.651 ± 0.088
Scaffold attachment factor B2 D37W, Q14151 | -0.495 ± 0.086
Scaffold attachment factor B2 D37Y, Q14151 | -0.797 ± 0.16

Substance | abundance fitness
Scaffold attachment factor B2 D48A, Q14151 | -0.181 ± 0.085
Scaffold attachment factor B2 D48C, Q14151 | -0.188 ± 0.11
Scaffold attachment factor B2 D48F, Q14151 | -0.338 ± 0.36
Scaffold attachment factor B2 D48G, Q14151 | -0.284 ± 0.077
Scaffold attachment factor B2 D48I, Q14151 | -0.555 ± 0.13
Scaffold attachment factor B2 D48K, Q14151 | -0.358 ± 0.084
Scaffold attachment factor B2 D48L, Q14151 | -0.513 ± 0.094
Scaffold attachment factor B2 D48M, Q14151 | -0.545 ± 0.14
Scaffold attachment factor B2 D48P, Q14151 | 0.03 ± 0.089
Scaffold attachment factor B2 D48Q, Q14151 | -0.329 ± 0.11
Scaffold attachment factor B2 D48R, Q14151 | -0.625 ± 0.082
Scaffold attachment factor B2 D48S, Q14151 | -0.214 ± 0.086
Scaffold attachment factor B2 D48T, Q14151 | -0.526 ± 0.083
Scaffold attachment factor B2 D48W, Q14151 | -0.757 ± 0.087
Scaffold attachment factor B2 D48Y, Q14151 | -0.744 ± 0.14
Scaffold attachment factor B2 D70A, Q14151 | 0.141 ± 0.14
Scaffold attachment factor B2 D70C, Q14151 | -0.037 ± 0.12
Scaffold attachment factor B2 D70E, Q14151 | 0.125 ± 0.12
Scaffold attachment factor B2 D70F, Q14151 | -0.431 ± 0.15
Scaffold attachment factor B2 D70G, Q14151 | -0.036 ± 0.11
Scaffold attachment factor B2 D70H, Q14151 | -0.197 ± 0.13
Scaffold attachment factor B2 D70I, Q14151 | -0.258 ± 0.17

Substance | abundance fitness
Scaffold attachment factor B2 D70K, Q14151 | -0.337 ± 0.29
Scaffold attachment factor B2 D70P, Q14151 | 0.014 ± 0.13
Scaffold attachment factor B2 D70S, Q14151 | -0.094 ± 0.15
Scaffold attachment factor B2 D70V, Q14151 | -0.283 ± 0.14
Scaffold attachment factor B2 D70W, Q14151 | -0.576 ± 0.16
Scaffold attachment factor B2 E32A, Q14151 | -0.445 ± 0.11
Scaffold attachment factor B2 E32C, Q14151 | -0.33 ± 0.12
Scaffold attachment factor B2 E32D, Q14151 | 0.003 ± 0.1
Scaffold attachment factor B2 E32F, Q14151 | -0.873 ± 0.27
Scaffold attachment factor B2 E32H, Q14151 | -0.52 ± 0.23
Scaffold attachment factor B2 E32I, Q14151 | -0.657 ± 0.14
Scaffold attachment factor B2 E32K, Q14151 | -0.355 ± 0.23
Scaffold attachment factor B2 E32L, Q14151 | -0.543 ± 0.1
Scaffold attachment factor B2 E32M, Q14151 | -0.554 ± 0.093
Scaffold attachment factor B2 E32N, Q14151 | 0.078 ± 0.35
Scaffold attachment factor B2 E32P, Q14151 | -0.474 ± 0.12
Scaffold attachment factor B2 E32Q, Q14151 | -0.135 ± 0.087
Scaffold attachment factor B2 E32R, Q14151 | -0.431 ± 0.087
Scaffold attachment factor B2 E32S, Q14151 | -0.36 ± 0.093
Scaffold attachment factor B2 E32T, Q14151 | -0.07 ± 0.13
Scaffold attachment factor B2 E32V, Q14151 | -0.393 ± 0.077
Scaffold attachment factor B2 E32W, Q14151 | -0.621 ± 0.09

Substance | abundance fitness
Scaffold attachment factor B2 E41L, Q14151 | -0.876 ± 0.35
Scaffold attachment factor B2 E41R, Q14151 | -1.09 ± 0.38
Scaffold attachment factor B2 E41W, Q14151 | -1.02 ± 0.23
Scaffold attachment factor B2 E58A, Q14151 | -0.129 ± 0.085
Scaffold attachment factor B2 E58C, Q14151 | -0.364 ± 0.12
Scaffold attachment factor B2 E58D, Q14151 | 0.001 ± 0.12
Scaffold attachment factor B2 E58F, Q14151 | -0.769 ± 0.11
Scaffold attachment factor B2 E58G, Q14151 | -0.26 ± 0.077
Scaffold attachment factor B2 E58H, Q14151 | -0.338 ± 0.15
Scaffold attachment factor B2 E58I, Q14151 | -0.576 ± 0.11
Scaffold attachment factor B2 E58K, Q14151 | -0.44 ± 0.17
Scaffold attachment factor B2 E58L, Q14151 | -0.439 ± 0.077
Scaffold attachment factor B2 E58M, Q14151 | -0.162 ± 0.11
Scaffold attachment factor B2 E58N, Q14151 | -0.201 ± 0.099
Scaffold attachment factor B2 E58P, Q14151 | -0.612 ± 0.09
Scaffold attachment factor B2 E58Q, Q14151 | -0.319 ± 0.11
Scaffold attachment factor B2 E58R, Q14151 | -0.247 ± 0.072
Scaffold attachment factor B2 E58T, Q14151 | -0.203 ± 0.091
Scaffold attachment factor B2 E58V, Q14151 | -0.616 ± 0.076
Scaffold attachment factor B2 E66A, Q14151 | -0.092 ± 0.091
Scaffold attachment factor B2 E66C, Q14151 | -0.157 ± 0.13
Scaffold attachment factor B2 E66D, Q14151 | -0.042 ± 0.13
